Source: article PMC9406121
pEC50, pKd: −log10 of the molar value.

Key:
[1] = target: DT390-IL-13 single-chain fusion cytotoxin (monomer) (Corynebacterium diphtheriae | not stated); assay: SEC-MALS; SEC-MALS-DLS, Superose 6 Increase 10/300 GL, 4 °C, PBS pH 7.4
[2] = target: extracellular domain of IL-13-RA2 human recombinant receptor protein (human) (UniProt Q14627); assay: ELISA
UniProt Q14627, sequence (Q14627 27-343): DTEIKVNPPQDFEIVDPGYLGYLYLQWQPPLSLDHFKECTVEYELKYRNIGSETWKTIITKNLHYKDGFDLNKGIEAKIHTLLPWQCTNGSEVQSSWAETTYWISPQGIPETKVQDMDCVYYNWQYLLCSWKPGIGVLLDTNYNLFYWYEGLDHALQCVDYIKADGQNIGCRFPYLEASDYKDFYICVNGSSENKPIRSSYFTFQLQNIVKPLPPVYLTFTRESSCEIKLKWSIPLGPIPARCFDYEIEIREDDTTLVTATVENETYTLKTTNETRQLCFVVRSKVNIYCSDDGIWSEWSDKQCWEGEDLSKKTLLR

Substance | stoichiometry N [1] | pEC50 [2] | pKd [2]
DT390-IL-13 single-chain fusion cytotoxin (monomer) | 2 | 8.72 | 10.17
DT390-IL-13 single-chain fusion cytotoxin, dimer (complex) |  | 8.19 | 
DT390-IL-13 single-chain fusion cytotoxin, oligomers (complex) |  | 8.17 | 
